Target: OT-I T cell receptor on OTi target T cells (splenocytes from OT-I mouse) (mouse)
Test: cell-based or functional assay

Substance: FITC-conjugated H2Kb-SIINFEKL tetramer (from UniProt P01901 22-305) (peptide-MHC)
- cytotoxicity of CD8 CAR T cells on OTi cells: > 50%

— patent US20240139242A1
